Measured values reported in the DeepSol protein solubility set.

test: soluble on expression in E. coli; label from the status in PepcDB or PDB records

Sequence	soluble on expression in E. coli
MSATEKDKTPLLGVSQPISLAHPDSKDIAQTTLLIETLKKFGSYEPKEETEQRMEVLRNLNRLVKEWVKNVTAMKIPNGEGVNAGGKLFTFGSYRLGVHSSGADIDTLAVVPRHIDRSDFFTSFKEMLNNDPNVTELHGVEEAFVPVMKLKYSGVELDILFARLALKEVPDTQELSDDNLLRNLDQESVRSLNGCRVAEQLLKLVPRQKEFCVTLRAIKLWAKNHGIYSNSMGFFGGITWAILVARACQLYPNASPSRLVHRMFFIFSTWTWPHPVVLNEMNNDRNDIPTLCELVWDPRRKNTDRFHVMPIITPAFPEQNSTHNVTRSTATVIKNEICEALEICRDISEGKSKWTALFEEVNFFSRYKHFIALIMAAPNEEEELNYGGFLESRIRLLVQSLERNQDIIIAHNDPNKHKPSPNAKFDVNPENKRVTVWFIGLEFAEHAKTLDLTNEIQRFKTNVELQASNVKGIGPNCQVQIDMFYVKRNSLIQVISAADLRRGRRWKKVVPIATNTSVSSSTPRSVVRTTSTSSVPTTPTGLAAPKTPLSASVSATNEPDSTTNGTPLSRKRSMDEESSTTVTSQISDESVPKKKTRDDTLEENRVSMVVEVSNVVVEQRTKVVQEIVDLQADNGLNTSNGLEASEQKMEVPQSV	not soluble
MSAYPKSYNPFDDDGEDEGARPAPWRDARDLPDGPDAPADRQQYLRQEVLRRAEATAASTSRSLALMYESEKVGVASSEELARQRGVLERTEKMVDKMDQDLKISQKHINSIKSVFGGLVNYFKSKPVETPPEQNGTLTSQPNNRLKEAISTSKEQEAKYQASHPNLRKLDDTDPVPRGAGSAMSTDAYPKNPHLRAYHQKIDSNLDELSMGLGRLKDIALGMQTEIEEQDDILDRLTTKVDKLDVNIKSTERKVRQL	soluble
MTTPGSSLPPALVDRTALAARRARMRDAALFLHHAALDEVQDRLSLVNRTFTDMAVVTPAPALWAGSFPMARFVAEDEMLDLAPQSCDLVVHAMALHWANDAVGQLIQCRRALRPDGLLLAICFGGQTLHQLRAALAEAEAQVSGGISPRVAPMAEIRDLGALLQRAGLALPVADSLTLTAEYRDLPHLMRDLRQMGEANALSARLRHPTQRAVFERAEEIYAAHFATPDNRLPATFELICLTGWAPDDSQPKPLRPGSASARLAAALGTSETPLPD	not soluble
MGSDKIHHHHHHMRKLALPLVAFLTGGLAACSSSDVVESQGITVENCGSVVNFDSPPSHIALMKSAAVPTLDALGVLDRVVTKAGAFPAGYYDADLSERVTDIPTLSNKIDASGHVLISKEVVVAANPDIVFGETDTINRASMASSNIPVVEEPAFCGSIDGDVSFDDVWSQISTYGTIFDRSTEADAYIATLKERVSEVSSRVTDSGKTVAVLYPTIGGGVTYAYGRGSMANPLVAEAGLTNVFADQSERVFEVTAEELISRNPDYIIVLHSDGSPSDIVAEVGNLQGSSALTALSENKVLPILMNFAEPPTPLAVDGLEKIIDFVETHP	not soluble
ASQIERNLARISAEKNRLDTILRGMGEGLMVSDAGGTVTLVNPAFLELFGLTQSVEGRQIIEIARFPELHETFRAVVSSRSEHVEEMTLPLGDEKQVLTHWVPLMEEDELRGVVAVFHDIS	not soluble
MGSDKIHHHHHHMEVKELERDKNRVVLEYVFGAEEIAQAEDKAVRYLNQRVEIPGFRKGRIPKNVLKMKLGEEFQEYTLDFLMDLIPDTLKDRKLILSPIVTERELKDVTARVVVEVHEEPEVRIGDISKIEVEKVDEEKVLEKYVERRIEDLRESHALLEPKEGPAEAGDLVRVNMEVYNEEGKKLTSREYEYVISEDEDRPFVKDLVGKKKGDVVEIEREYEGKKYTYKLEVEEVYKRTLPEIGDELAKSVNNEFETLEQLKESLKKEGKEIYDVEMKESMREQLLEKLPEIVEIEISDRTLEILVNEAINRLKREGRYEQIVSSYESEEKFREELKERILDDIKRDRVIEVLAQEKGISVNDEELEKEAEELAPFWGISPDRAKSLVKARQDLREELRWAILKRKVLDLLLQEVKVKVVEPKGEGDDSEGKEDN	not soluble
MAENKKKNDDMATVEFESSEEVSIIPTFDKMGLREDLLRGIYAYGFEKPSAIQQRAIPAILKARDVIAQAQSGTGKTATFSISVLQSLDTQVRETQALILSPTRELAVQIQKVVLALGDYMNVQCHACIGGTNLGEDIRKLDYGQHVVSGTPGRVFDMIRRRNLRTRAIKLLVLDEADEMLNKGFKEQLYDIYRYLPPGAQVVLLSATLPHEILEMTSKFMTDPIRILVKRDELTLEGIKQFFVAVDREEWKFDTLIDLYDTLTITQAVLFCNTRRKVDWLTDKMKEANFTVSSMHGDMEQKDRDEVMKEFRAGTTRVLISTDVWARGLDVPQVSLVINYDLPNNRELYIHRIGRSGRFGRKGVAINFVKQDDVRILRDIEQYYSTQIDEMPMNIADII	not soluble
MAHHHHHHMEAKAQAYLEKLSNSLQAAGRTATADVLKRAKEEFERSLWCEMTDDLLLAVRDPLVLESAYELHENVLKVTRMDMSPTAYVKLLHYICFCPNSTLQKALDLLNGAVVALSTSSEQGENMANCIRALLLLDSYNDKSSPAGTAASEASRILDKVESFIHSKQMHEVEPVLAALHCQARGKDYEIRQQYTKYYSNAFETVKSAERAEMPIIESDLLSLAYKAALSALLSEEIYNFGKFLNERHFTERLADSVQHAWILEWLRLCNDGKVEEFEQYAVAHKAEMAASPILSEFFPSITKKVRLMALLHLVFYTPFNERTFTFDVIARRCAVDEERVEPLLLAALAQGIIMGKIDGLTQEVHITWVEPRVLSLQEVKELAVHVSRWKEKTLGLMQCMKEAAQETHN	soluble
MDTYQNMNFHDNINSNIPKNYNSFYEELKKNLNESDILTIAYEVEVLKNIKKINCDEIGKNWDYSFIDSEYGKSTLVILEVGYHLISPYIENNENKKKKLQLFLLLINSMYFPNPYHNANHGATVCHLSKCLAHITDYDSYLNNTYMICYLIASIAHDVGHPGKTNSYLSETNHILSIRYNDMSILENYHCSITFSILQLIGFDFLINNEDTKLVEKNNYTNMRKFIIELIISTDMKLHFEYVDIFKKRKKSQNFDISDTDAINLGTINIKLADIGHTCLKWKDHAKWTMLVSEEFFSQKRVEELHKNKNIDPLNFSNFGKEDNIDEGMIFNYENIYINYINNINNINTYDYSYIKLNFIHHHDFVKSIPSTQVYFFEIIVMPLIKELQSMEKSKKEITQKVLHNLNINLQTWRLIEKNINLFYNTEKMTGTDYYKNLEKQKLLRGIRLLDIAEEDVISLTKNFKEEIKHG	not soluble
MGSDKIHHHHHHMQENRYNTCDRFLGGLEKDFIITEQIEDSPLTSEPSFLDYGIIAVCNRGSAIIHLLDNKHVWNKNELIFLFPRQLCSMRNVSEDFSAKFIIIPHVLHGDVLSSLRHFDPGFHFFVKDHFYYNIEDNNGIERFQSFCKLIENELERYRGNGLLRERIICYLGIFYMDVYDYYVKVRKKIPFRTSLRKEQLIYDFCSLVAENFKNHKNVGFYADKLNITTTYLSAIMNERCGISAKEFLSIYIVLEVKSLLRDSRLNIQEIAILTNFPSQSTLNRFFRQRTGMTLSQYRKHIFST	not soluble
MPSISPASDADRALVIGSGLGGLAAAMRLGAKGWRVTVIDKLDVPGGRGSSITQEGHRFDLGPTIVTVPQSLRDLWKTCGRDFDADVELKPIDPFYEVRWPDGSHFTVRQSTEAMKAEVARLSPGDVAGYEKFLKDSEKRYWFGYEDLGRRSMHKLWDLIKVLPTFGMMRADRSVYQHAALRVKDERLRMALSFHPLFIGGDPFNVTSMYILVSQLEKEFGVHYAIGGVAAIAAAMAKVIEGQGGSFRMNTEVDEILVEKGTATGVRLASGEVLRAGLVVSNADAGHTYMRLLRNHPRRRWTDAHVKSRRWSMGLFVWYFGTKGTKGMWPDVGHHTIVNAPRYKGLVEDIFLKGKLAKDMSLYIHRPSITDPTVAPEGDDTFYALSPVPHLKQAQPVDWQAVAEPYRESVLEVLEQSMPGIGERIGPSLVFTPETFRDRYLSPWGAGFSIEPRILQSAWFRPHNISEEVANLFLVGAGTHPGAGVPGVIGSAEVMAKLAPDAPRARREAEPAERLAAELEHHHHHH	not soluble
